Data from US20250282874A1 (SUZHOU TRANSCENTA THERAPEUTICS, published 2025).
Positions count from the first letter of the chain named. Names and notes keep the numbering of the source. Like-named read-outs stand apart in the source and are kept apart here.

Assays:
human CD47 = human CD47 (human, UniProt Q08722 19-139, limits assumed); test: ELISA on human CD47, OD450
[1] = molecular target: T1, hPD-L1 (Acro Biosystems, PD1-H5229) (human, UniProt Q9NZQ7 19-238); test: ELISA on human PD-L1, OD450
T1 construct: also called human PD-L1; hPD-L1 protein

[2] = molecular target: T2, human PD-L1 expressed on cells (human, UniProt Q9NZQ7 19-290); test: flow cytometry on 293T-PD-L1-CD3L cells, Mean FITC-A as printed
T2 construct: whole, on cells; also called MC38/hPD-L1

[3] = molecular target: T3, Human IL-1β protein (Sino Biological, Cat #10139) (human, UniProt P01584 117-269); test: ELISA, hIL-1β protein coated, anti-human Fc-HRP, OD450
T3 construct: also called hIL-1β

[4] = molecular target: T2, human PD-L1 expressed on cells; test: cell-based or functional assay
[5] = molecular target: T1, hPD-L1 (Acro Biosystems, PD1-H5229); test: ELISA, hPD-L1 coated, anti-human Fc-HRP, OD450
[6] = molecular target: T3, Human IL-1β protein (Sino Biological, …); test: cell-based or functional assay
human PD-L1-His [7] = molecular target: T4, human PD-L1-His (human, UniProt Q9NZQ7 19-238, limits assumed); test: ELISA, human PD-L1-His coated, anti-human IgG-HRP, OD450
T4 construct: not shown: His tag

human PD-L1-His [8] = molecular target: T4, human PD-L1-His; test: ELISA, human PD-L1 coated, OD450
human PD-L1-Fc [9] = molecular target: T5, human PD-L1-Fc (human, UniProt Q9NZQ7 19-239); test: BLI; PD-L1-Fc loaded on the sensor, scFv in solution
T5 construct: also called hPD-L1-Fc; human PD-L1-Fc (Sino Biological, 70110-D02H); not shown: Fc part

human PD-L1-Fc [10] = molecular target: T5, human PD-L1-Fc; test: BLI; against L-CDR1-WT
human PD-L1-Fc [11] = molecular target: T5, human PD-L1-Fc; test: BLI; PD-L1-Fc loaded on the sensor, scFv in solution; remark: listed apart in the source
human PD-L1-Fc [12] = molecular target: T5, human PD-L1-Fc; test: BLI; against L-CDR2-WT
[13] = molecular target: T3, Human IL-1β protein (Sino Biological, …); test: cell-based or functional assay; remark: listed apart in the source

Sequence of human CD47 (Q08722 19-139 limits assumed): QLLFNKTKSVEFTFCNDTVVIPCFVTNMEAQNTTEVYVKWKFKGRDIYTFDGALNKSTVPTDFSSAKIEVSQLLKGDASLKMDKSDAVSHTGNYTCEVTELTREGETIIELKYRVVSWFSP

B1: AM4B6-hIgG1-SIRPα (other)
heavy: QVQLVQSGAEVKKPGASVKVSCKASGYVFTDYYMNWVRQAPGQSLEWMGDINPNNAETLYNHKFKGRVTVTVDKSISTAYMELSRLRSDDTAVYYCVKWGDGPFAYWGQGTLVTVSSASTKGPSVFPLAPSSKSTSGGTAALGCLVKDYFPEPVTVSWNSGALTSGVHTFPAVLQSSGLYSLSSVVTVPSSSLGTQTYICNVNHKPSNTKVDKKVEPKSCDKTHTCPPCPAPEFEGGPSVFLFPPKPKDTLMISRTPEVTCVVVDVSHEDPEVKFNWYVDGVEVHNAKTKPREEQYNSTYRVVSVLTVLHQDWLNGKEYKCKVSNKALPASIEKTISKAKGQPREPQVYTLPPSRDELTKNQVSLTCLVKGFYPSDIAVEWESNGQPENNYKTTPPVLDSDGSFFLYSKLTVDKSRWQQGNVFSCSVMHEALHNHYTQKSLSLSPGAGGGGSGGGGSGGGGSGGGGSGEEELQIIQPDKSVLVAAGETATLRCTITSLFPVGPIQWFRGAGPGRVLIYNQRQGPFPRVTTVSDTTKRNNMDFSIRIGNITPADAGTYYCIKFRKGSPDDVEFKSGAGTELSVRAKPS
light: DIQMTQSPSSLSASVGDRVTITCKASQNVGAAVAWYQQKPGKAPKLLIYSVSDRYTGVPSRFSGSGSGTDFTLTISSLQPEDIATYYCQQYSNYPTFGQGTKLEIKRTVAAPSVFIFPPSDEQLKSGTASVVCLLNNFYPREAKVQWKVDNALQSGNSQESVTEQDSKDSTYSLSSTLTLSKADYEKHKVYACEVTHQGLSSPVTKSFNRGEC
notes: Symmetrical bifunctional antibody against PD-L1 and CD47 (SIRPα_CV1 on the heavy chain)
For B1, the EC50 (human CD47) was 0.24 nM and the EC50 [1] was 0.154 nM.

B2: AM4B6-hIgG1-SIRPα (KIH) (other)
heavy 1: B1 heavy with S354C, T366W
heavy 2: QVQLVQSGAEVKKPGASVKVSCKASGYVFTDYYMNWVRQAPGQSLEWMGDINPNNAETLYNHKFKGRVTVTVDKSISTAYMELSRLRSDDTAVYYCVKWGDGPFAYWGQGTLVTVSSASTKGPSVFPLAPSSKSTSGGTAALGCLVKDYFPEPVTVSWNSGALTSGVHTFPAVLQSSGLYSLSSVVTVPSSSLGTQTYICNVNHKPSNTKVDKKVEPKSCDKTHTCPPCPAPEFEGGPSVFLFPPKPKDTLMISRTPEVTCVVVDVSHEDPEVKFNWYVDGVEVHNAKTKPREEQYNSTYRVVSVLTVLHQDWLNGKEYKCKVSNKALPASIEKTISKAKGQPREPQVCTLPPSRDELTKNQVSLSCAVKGFYPSDIAVEWESNGQPENNYKTTPPVLDSDGSFFLVSKLTVDKSRWQQGNVFSCSVMHEALHNHYTQKSLSLSPGK
light: B1 light
notes: Asymmetric (knob into hole) bifunctional antibody
For B2, the EC50 (human CD47) was 0.167 nM and the EC50 [1] was 0.0853 nM.

B3: IgG-scFv-XOMA052-AM4B6 (bispecific antibody)
heavy: QVQLQESGPGLVKPSQTLSLTCSFSGFSLSTSGMGVGWIRQPSGKGLEWLAHIWWDGDESYNPSLKSRLTISKDTSKNQVSLKITSVTAADTAVYFCARNRYDPPWFVDWGQGTLVTVSSASTKGPSVFPLAPSSKSTSGGTAALGCLVKDYFPEPVTVSWNSGALTSGVHTFPAVLQSSGLYSLSSVVTVPSSSLGTQTYICNVNHKPSNTKVDKKVEPKSCDKTHTCPPCPAPEFEGGPSVFLFPPKPKDTLMISRTPEVTCVVVDVSHEDPEVKFNWYVDGVEVHNAKTKPREEQYNSTYRVVSVLTVLHQDWLNGKEYKCKVSNKALPASIEKTISKAKGQPREPQVYTLPPSRDELTKNQVSLTCLVKGFYPSDIAVEWESNGQPENNYKTTPPVLDSDGSFFLYSKLTVDKSRWQQGNVFSCSVMHEALHNHYTQKSLSLSPGAGGGGSGGGGSGGGGSGGGGSQVQLVQSGAEVKKPGASVKVSCKASGYVFTDYYMNWVRQAPGQSLEWMGDINPNNAETLYNHKFKGRVTVTVDKSISTAYMELSRLRSDDTAVYYCVKWGDGPFAYWGQGTLVTVSSGGGGSGGGGSGGGGSGGGGSDIQMTQSPSSLSASVGDRVTITCKASQNVGAAVAWYQQKPGKAPKLLIYSVSDRYTGVPSRFSGSGSGTDFTLTISSLQPEDIATYYCQQYSNYPTFGQGTKLTVL
light: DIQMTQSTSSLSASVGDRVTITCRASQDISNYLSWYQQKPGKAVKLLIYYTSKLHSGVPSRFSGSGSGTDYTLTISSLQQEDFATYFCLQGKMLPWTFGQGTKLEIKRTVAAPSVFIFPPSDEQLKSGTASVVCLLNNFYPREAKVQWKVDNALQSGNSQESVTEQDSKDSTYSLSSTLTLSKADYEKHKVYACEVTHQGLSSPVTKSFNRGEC
notes: Anti-IL-1β IgG (Gevokizumab) with the AM4B6 scFv on the C-terminus of the heavy chain
In the case of B3, the EC50 [2] is reported as 1.4 nM, the EC50 [3] is reported as 0.0155 nM and the “IC50 (so in the source), luminescence (axis printed OD450), 293T-PD-L1-CD3L cells with Jurkat-NFAT-Luc-PD1 cells” value [4] is reported as 1.49 nM. The EC50 [5] was 0.0349 nM and the “IC50, IL-6 release (pg/mL) of HDF cells stimulated with human IL-1β” value [6] was 0.0141 nM.

B4: Hu4B6_HdLa (antibody, human IgG1, V domains shown)
VH: QVQLVQSGAEVKKPGASVKVSCKASGYVFTDYYMNWVRQAPGQSLEWMGDINPNNGGTSYNHKFKGRVTVTVDKSISTAYMELSRLRSDDTAVYYCVKWGDGPFAYWGQGTLVTVSS
VL: DIQMTQSPSSLSASVGDRVTITCKASQNVGAAVAWYQQKPGKAPKLLIYSASNRYTGVPSRFSGSGSGTDFTLTISSLQPEDIATYYCQQYSNYPTFGQGTKLEIK
B4 showed an EC50 (human PD-L1-His [7]) of 1.04 nM and an EC50 (human PD-L1-His [8]) of 0.347 nM.

B5: Hu4B6_HgLa (antibody, V domains shown)
VH: B4 VH with G56A
VL: B4 VL
notes: Hu4B6_Hd with G55A, paired with Hu4B6_La
For B5, the EC50 (human PD-L1-His [8]) was 0.407 nM.

B6: 4B6 scFv variant L-CDR1-1 (scFv)
scFv: DIQMTQSPSSLSASVGDRVTITCKASQNVGAIVAWYQQKPGKAPKLLIYSASNRYTGVPSRFSGSGSGTDFTLTISSLQPEDIATYYCQQYSNYPTFGQGTKLEIKGGGGSGGGGSGGGGSQVQLVQSGAEVKKPGASVKVSCKASGYVFTDYYMNWVRQAPGQSLEWMGDINPNNAGTSYNHKFKGRVTVTVDKSISTAYMELSRLRSDDTAVYYCVKWGDGPFAYWGQGTLVTVSS
notes: also called 4B6-L-CDR1-1
For B6, the Kd (human PD-L1-Fc [9]) was 6.91 nM, the kon (human PD-L1-Fc [9]) was 41200 M⁻¹ s⁻¹ and the Fold increase (human PD-L1-Fc [10]) was 4.08 fold.

B7: 4B6 scFv variant L-CDR1-2 (scFv)
scFv: B6 scFv with G30P, I32A
notes: also called 4B6-L-CDR1-2
B7 showed a Kd (human PD-L1-Fc [9]) of 5.68 nM, a kon (human PD-L1-Fc [9]) of 271000 M⁻¹ s⁻¹ and a Fold increase (human PD-L1-Fc [10]) of 4.96 fold.

B8: 4B6 scFv variant L-CDR2-3 (scFv)
scFv: B6 scFv with I32A, A51V, N53D
notes: also called 4B6-L-CDR2-3
B8 showed a Kd (human PD-L1-Fc [11]) of 4.37 nM, a kon (human PD-L1-Fc [11]) of 124000 M⁻¹ s⁻¹ and a Fold increase (human PD-L1-Fc [12]) of 6.32 fold.

B9: 4B6 scFv variant L-CDR2-2 (scFv)
scFv: B6 scFv with I32A, A51R, N53V
notes: also called 4B6-L-CDR2-2
Binder B9 has a Kd (human PD-L1-Fc [11]) of 3.34 nM, a kon (human PD-L1-Fc [11]) of 162000 M⁻¹ s⁻¹ and a Fold increase (human PD-L1-Fc [12]) of 8.26 fold.

B10: 4B6 scFv variant L-CDR2-1 (scFv)
scFv: B6 scFv with I32A, A51N, N53H
notes: also called 4B6-L-CDR2-1
B10 gave a Kd (human PD-L1-Fc [11]) of 8.06 nM, a kon (human PD-L1-Fc [11]) of 46800 M⁻¹ s⁻¹ and a Fold increase (human PD-L1-Fc [12]) of 3.42 fold.

B11: 4B6 scFv variant L-CDR1-3 (scFv)
scFv: B6 scFv with G30K, A31G, I32A
notes: also called 4B6-L-CDR1-3
Binder B11 has a Kd (human PD-L1-Fc [9]) of 2.78 nM, a kon (human PD-L1-Fc [9]) of 91100 M⁻¹ s⁻¹ and a Fold increase (human PD-L1-Fc [10]) of 10.1 fold.

B12: ACZ885 (antibody, V domains shown)
VH: QVQLVESGGGVVQPGRSLRLSCAASGFTFSVYGMNWVRQAPGKGLEWVAIIWYDGDNQYYADSVKGRFTISRDNSKNTLYLQMNGLRAEDTAVYYCARDLRTGPFDYWGQGTLVTVSS
VL: EIVLTQSPDFQSVTPKEKVTITCRASQSIGSSLHWYQQKPDQSPKLLIKYASQSFSGVPSRFSGSGSGTDFTLTINSLEAEDAAAYYCHQSSSLPFTFGPGTKVDIK
notes: Monoclonal anti-IL-1β antibody; also called Canakinumab
With B12 the “IC50, SEAP at OD620, HEK293-CD40L reporter cells stimulated with human IL-1β” value [13] was 0.294 nM and the EC50 [3] was 0.0113 nM.

B13: IgG-scFv-ACZ885-AM4B6 (bispecific antibody)
heavy: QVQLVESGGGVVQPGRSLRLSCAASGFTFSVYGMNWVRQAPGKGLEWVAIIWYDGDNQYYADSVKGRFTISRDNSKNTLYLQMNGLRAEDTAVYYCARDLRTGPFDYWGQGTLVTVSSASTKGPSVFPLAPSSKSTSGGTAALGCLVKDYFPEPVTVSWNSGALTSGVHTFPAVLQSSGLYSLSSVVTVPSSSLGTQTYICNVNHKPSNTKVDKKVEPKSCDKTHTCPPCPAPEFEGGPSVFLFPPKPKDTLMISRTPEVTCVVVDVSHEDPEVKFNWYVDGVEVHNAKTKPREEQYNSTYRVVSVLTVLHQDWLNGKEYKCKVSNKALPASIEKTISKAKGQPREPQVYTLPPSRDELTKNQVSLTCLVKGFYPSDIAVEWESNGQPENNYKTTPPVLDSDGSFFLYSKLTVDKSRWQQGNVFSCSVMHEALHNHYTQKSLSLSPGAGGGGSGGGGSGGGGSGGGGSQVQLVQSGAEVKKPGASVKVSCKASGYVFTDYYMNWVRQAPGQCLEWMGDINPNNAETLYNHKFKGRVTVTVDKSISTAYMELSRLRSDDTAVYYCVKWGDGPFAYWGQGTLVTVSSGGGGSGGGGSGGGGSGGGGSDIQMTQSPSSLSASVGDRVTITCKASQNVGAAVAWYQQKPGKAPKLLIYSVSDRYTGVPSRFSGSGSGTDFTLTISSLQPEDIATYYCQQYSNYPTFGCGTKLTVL
light: EIVLTQSPDFQSVTPKEKVTITCRASQSIGSSLHWYQQKPDQSPKLLIKYASQSFSGVPSRFSGSGSGTDFTLTINSLEAEDAAAYYCHQSSSLPFTFGPGTKVDIKRTVAAPSVFIFPPSDEQLKSGTASVVCLLNNFYPREAKVQWKVDNALQSGNSQESVTEQDSKDSTYSLSSTLTLSKADYEKHKVYACEVTHQGLSSPVTKSFNRGEC
notes: Anti-IL-1β IgG (Canakinumab) with the AM4B6 scFv on the C-terminus of the heavy chain
For B13, the EC50 [2] was 1.51 nM, the “IC50, SEAP at OD620, HEK293-CD40L reporter cells stimulated with human IL-1β” value [13] was 0.346 nM and the EC50 [3] was 0.0182 nM. The “IC50 (so in the source), luminescence (axis printed OD450), 293T-PD-L1-CD3L cells with Jurkat-NFAT-Luc-PD1 cells” value [4] was about 1.29 nM and the EC50 [5] was 0.0363 nM.
